Among the data in PMC6003364 are stoichiometry N values, retold here.

Assay [1] has as its target periplasmic domain of TraE (plasmid pKM101). The assay is described as follows: cross-linking.
The target of assay [2] is N-terminally His-tagged, full-length TraE (VirB8 homolog) from plasmid pKM101 (plasmid pKM101). The assay is described as follows: negative-stain EM.

Broadly, the stoichiometry N is a count of units in the complex or per binding partner. As to “periplasmic domain of TraE (domain or fragment)”, in assay [1], the stoichiometry N was 2. Consider “N-terminally His-tagged, full-length TraE (VirB8 homolog) from plasmid pKM101 (natural protein)”, for which the stoichiometry N in assay [2] was 6.
